Measurements taken from patent US20030157096A1 (ZymoGenetics, published 2003).

Columns and labels:
[1] = molecular target: T1, zcytor11 and CRF2-4 receptors co-expressed on transfected BaF3 or BHK cells (human, UniProt Q08334 20-325, limits assumed); experiment: flow cytometry, biotinylated IL-TIF-CEE at 10 or 1 µg/ml plus PE-streptavidin on BaF3 transfectants (same results stated for BHK transfectants)
T1 construct: whole, on cells; The two receptor subunits are co-transfected in one cell line; also called zcytor11/CRF2-4; BaF3/zcytor11/CRF2-4
T1 sequence 1: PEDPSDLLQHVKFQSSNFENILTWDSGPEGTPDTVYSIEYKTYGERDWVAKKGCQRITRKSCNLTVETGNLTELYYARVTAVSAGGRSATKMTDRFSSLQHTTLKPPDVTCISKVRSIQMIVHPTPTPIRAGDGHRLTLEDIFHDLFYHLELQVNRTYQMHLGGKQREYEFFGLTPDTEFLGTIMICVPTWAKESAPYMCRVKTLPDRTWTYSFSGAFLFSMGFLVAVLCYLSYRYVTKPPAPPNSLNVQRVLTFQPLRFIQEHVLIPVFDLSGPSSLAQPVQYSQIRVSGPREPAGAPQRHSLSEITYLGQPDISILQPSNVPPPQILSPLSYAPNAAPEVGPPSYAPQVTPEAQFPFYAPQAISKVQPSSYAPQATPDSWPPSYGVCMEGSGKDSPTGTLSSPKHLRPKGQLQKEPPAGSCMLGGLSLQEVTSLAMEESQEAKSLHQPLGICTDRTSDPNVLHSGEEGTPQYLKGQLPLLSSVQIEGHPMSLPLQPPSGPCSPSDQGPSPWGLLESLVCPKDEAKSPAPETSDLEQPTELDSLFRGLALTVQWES
T1 sequence 2: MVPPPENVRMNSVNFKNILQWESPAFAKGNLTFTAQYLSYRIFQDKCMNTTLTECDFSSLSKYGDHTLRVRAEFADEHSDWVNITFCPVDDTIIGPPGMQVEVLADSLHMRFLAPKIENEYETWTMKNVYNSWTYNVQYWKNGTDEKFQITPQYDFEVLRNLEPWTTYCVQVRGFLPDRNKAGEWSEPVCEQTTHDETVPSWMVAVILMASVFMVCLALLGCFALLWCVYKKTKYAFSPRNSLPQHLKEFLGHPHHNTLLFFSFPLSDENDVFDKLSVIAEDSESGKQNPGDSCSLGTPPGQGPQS
From the text: (§1) To test the binding properties of the IL-TIF ligand to several potential receptor components, BaF3 and BHK cells were transfected with expression plasmids including zcytor11 alone, CRF2-4 alone (Genbank Accession No. Z17227), zcytor11 (SEQ ID NO:1) and CRF2-4, or zcytoR11 and pDIRS1 (WIPO Publication WO99/46379, Schering Corporation, 1999), as described above. Untransfected BaF3 and BHK cells were included as controls. Cells were resuspended in FACS wash buffer (WB: PBS/1%BSA, supplemented with 3% human Ultraserum (Gemini BioProducts, Calabasas, Calif.)) counted and 1×10⁶ of each type were aliquoted into 5 ml polystyrene tubes. Cells were washed and pelleted, then incubated for 20 min on ice with 100 μl of WB only, or WB plus 10 μg/ml or 1 μg/ml biotinylated zcytolO protein. Cells were washed with 1.5 ml WB and pelleted, then incubated in 100 μl of 2.5 μg/ml phycoerthyrin-conjugated streptavidin (PE-SA, PharMingen, San Diego, Calif.) for another 20 min on ice. Cells were washed as before, resuspended in 0.4 ml of WB and analyzed on a FACScan using CellQuest software (Becton Dickinson, Mountain View, Calif.).

[2] = molecular target: T2, zcytor11 receptor, full-length, on transfected BaF3 or BHK cells (zcytor11 alone) (human, UniProt Q8N6P7 18-574); experiment: as above
T2 construct: also called BaF3/zcytor11
T2 sequence: T1 sequence 1
From the text: as §1

[3] = molecular target: T3, CRF2-4 receptor, full-length, on transfected BaF3 or BHK cells (CRF2-4 alone) (UniProt Q08334 20-325, limits assumed); experiment: flow cytometry, biotinylated IL-TIF-CEE plus PE-streptavidin on BaF3 transfectants (same results stated for BHK transfectants)
T3 construct: whole, on cells; The full-length receptor on cells is tied only to Genbank Z17227; also called CFR2-4; BaF3/CRF2-4
T3 sequence (looked up): T1 sequence 2
From the text: as §1

B1: biotinylated human IL-TIF-CEE (ligand)
chain: APISSHCRLDKSNFQQPYITNRTFMLAKEASLADNNTDVRLIGEKLFHGVSMSERCYLMKQVLNFTLEEVLFPQSDRFQPYMQEVVPFLARLSNRLSTCHIEGDDLHIQRNVQKLKDTVKKLGESGEIKAIGELDLLFMSLRNACIEYMPME
modifications: biotinylated with EZ-link Sulfo-NHS-LC-biotin (sites not given)
notes: also called biotin-IL-TIF; IL-TIF ligand
Q: Does B1 bind [1]?
A: binds

Q: Does B1 bind [2]?
A: binds

Q: Does B1 bind [3]?
A: no binding (tested: 10 µg/ml or 1 µg/ml biotinylated protein)
